Laboratory results published in patent US20140242081A1.

Legend:
[1] = molecular target: human CD3 on T cells (human) (UniProt P07766); test: cell-based or functional assay
[2] = molecular target: human CEA on cells (CHO/huCEA, ASPC-1, LS1034) (human) (UniProt P06731); test: cell-based or functional assay
human CD3 (human) = human CD3 (human) (UniProt P07766); test: method not stated; KD of the CD3 binding arm, used to calculate fractional receptor occupancy

UniProt P06731, sequence (P06731 35-702): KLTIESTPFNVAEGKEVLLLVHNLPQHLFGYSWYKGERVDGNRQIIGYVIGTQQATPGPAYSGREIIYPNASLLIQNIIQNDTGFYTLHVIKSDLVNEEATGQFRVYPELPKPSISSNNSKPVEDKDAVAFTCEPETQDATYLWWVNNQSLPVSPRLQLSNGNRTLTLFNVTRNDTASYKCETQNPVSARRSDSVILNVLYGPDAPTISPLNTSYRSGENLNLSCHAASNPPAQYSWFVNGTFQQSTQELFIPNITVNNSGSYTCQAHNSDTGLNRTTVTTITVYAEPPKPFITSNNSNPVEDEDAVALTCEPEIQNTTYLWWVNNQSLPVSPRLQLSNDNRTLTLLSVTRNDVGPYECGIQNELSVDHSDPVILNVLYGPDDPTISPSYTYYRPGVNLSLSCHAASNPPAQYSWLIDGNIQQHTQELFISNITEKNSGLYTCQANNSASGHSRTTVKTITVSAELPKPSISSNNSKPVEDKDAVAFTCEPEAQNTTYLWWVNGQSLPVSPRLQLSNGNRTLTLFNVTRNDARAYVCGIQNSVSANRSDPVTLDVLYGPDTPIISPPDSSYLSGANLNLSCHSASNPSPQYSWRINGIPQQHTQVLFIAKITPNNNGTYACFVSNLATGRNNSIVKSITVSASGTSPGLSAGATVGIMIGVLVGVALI

- EC20 of CD25 de novo expression, C/P (PBMC without CD14 cocultured with CHO/huCEA), mean [1]: 0.217 ng/mL
- EC20 of CD25 upregulation on T cells (ASPC-1 target cells, PBMC with CD3ε, 48 h), mean of 10 donors [1]: 0.376 ng/mL
- EC20 of CD69 de novo expression, A/3 (PBMC with CD3ε cocultured with ASPC-1), mean [1]: 0.105 ng/mL
- EC20 of CD69 de novo expression, C/P (PBMC without CD14 cocultured with CHO/huCEA), mean [1]: 0.134 ng/mL
- EC20 of CD69 upregulation on T cells (ASPC-1 target cells, PBMC with CD3ε, 48 h), mean of 5 donors [1]: 0.441 ng/mL
- EC20 of IFNγ release (ASPC-1 target cells, PBMC with CD3ε, 48 h), mean [1]: 1.56 ng/mL
- EC20 of IL2 release (ASPC-1 target cells, PBMC with CD3ε, 48 h), mean [1]: 0.732 ng/mL
- EC20 of IL6 release (ASPC-1 target cells, PBMC with CD3ε, 48 h), mean [1]: 1.83 ng/mL
- EC20 of IL10 release (ASPC-1 target cells, PBMC with CD3ε, 48 h), mean [1]: 0.686 ng/mL
- EC20 of TNFα release (ASPC-1 target cells, PBMC with CD3ε, 48 h), mean [1]: 1.29 ng/mL
- EC50 of CD25 upregulation on T cells (ASPC-1 target cells, PBMC with CD3ε, 48 h), mean of 10 donors [1]: 4.65 ng/mL
- EC50 of CD69 de novo expression, A/3 (PBMC with CD3ε cocultured with ASPC-1), mean [1]: 1.26 ng/mL
- EC50 of CD69 de novo expression, C/3 (PBMC with CD3ε cocultured with CHO/huCEA), one value [1]: 1.34 ng/mL
- EC50 of CD69 upregulation on T cells (ASPC-1 target cells, PBMC with CD3ε, 48 h), mean of 5 donors [1]: 13.8 ng/mL
- EC50 of IFNγ release (ASPC-1 target cells, PBMC with CD3ε, 48 h), mean [1]: 3.29 ng/mL
- EC50 of IL2 release (ASPC-1 target cells, PBMC with CD3ε, 48 h), mean [1]: 2.14 ng/mL
- EC50 of IL6 release (ASPC-1 target cells, PBMC with CD3ε, 48 h), mean [1]: 4.04 ng/mL
- EC50 of IL10 release (ASPC-1 target cells, PBMC with CD3ε, 48 h), mean [1]: 3.92 ng/mL
- EC50 of TNFα release (ASPC-1 target cells, PBMC with CD3ε, 48 h), mean [1]: 6.56 ng/mL
- mean EC20 of CD25 upregulation (PBMC with CD3ε cocultured with CHO/huCEA, E:T 10:1, 72 h) [1]: 0.269 ng/mL
- EC20 of specific lysis of ASPC-1 cells (PBMC with CD3ε, E:T 5:1, 48 h), mean of 10 donors [2]: 0.097 ng/mL
- EC20 of specific lysis, C/P (CHO/huCEA cocultured with PBMC without CD14), mean [2]: 0.371 ng/mL
- EC50 of specific lysis of ASPC-1 cells (PBMC with CD3ε, E:T 5:1, 48 h), mean of 10 donors [2]: 2.03 ng/mL
- EC50 of specific lysis, A/P (ASPC-1 cocultured with PBMC without CD14), mean [2]: 0.971 ng/mL
- mean EC20 of specific lysis of ASPC-1 cells (PBMC with CD3ε, E:T 5:1, 48 h; Example 1, 11 donors) [2]: 0.05 ng/mL
- Kd (human CD3 (human)): 307 nM
Substance: MEDI-565 (bispecific antibody)
